According to patent publication US9075059B2, “Compositions and methods for detecting plectin-1 as a biomarker for cancer” (University of Virginia Patent Foundation, priority 2009, dated 2015):
Each block holds one molecule with its values, some of them ahead of it. Non-standard residues stand in square brackets, D forms with d. No end group written: not given here. *: point of attachment. DOTA = O=C(O)CN1CCN(CC(=O)O)CCN(CC(=O)*)CCN(CC(=O)O)CC1; βAla = NCCC(=O)O

Experiments:
[1] = system: tumors from orthotopically implanted L3.6 cells; test: SPECT/CT in vivo imaging of orthotopic PDAC; conditions: labeled peptide
Experimental: Anesthesia (1%-2% isoflurane in oxygen) was delivered throughout the imaging. CT acquisition used 200 evenly spaced projections spanning 200 degrees over approximately 5 minutes. Mice are repositioned axially for pinhole SPECT scanning 60 evenly spaced projection views were obtained over 180 degrees using two gamma cameras simultaneously. The acquisition time was approximately 30 minutes. The two cameras were fitted with 1 mm diameter tungsten pinholes. […] The reconstructed SPECT voxel size was 0.65×0.65×0.65 mm on a 60×60×60 image matrix. All SPECT images were corrected for radioactivity decay but not for gamma ray attenuation.

[2] = target: T1, Plectin-1 (Homo sapiens, UniProt Q15149); test: Affinity of tetrameric versus monomeric plectin-1 targeted peptide; format: binding; design: L3.6 cells were plated on a 96 well plate and incubated with 111In-tPTP and increasing log concentrations of tPTP or scrambled tetramer; endogenous in cells; host or cells: L3.6 pancreatic cancer cells
[3] = target: T1, Plectin-1; test: In vitro competition assay: 111In-tPTP versus unlabeled tPTP or ncPTP on L3.6 cells; format: binding; design: L3.6 cells were plated on a 96 well plate and incubated with 111In-tPTP and increasing log concentrations of tPTP or scrambled tetramer; endogenous in cells; host or cells: L3.6 pancreatic cancer cells; conditions: competition with 111In-labeled tPTP, 1 hr room temperature, read-out: Ki (inhibition dissociation constant)
[4] = target: T1, Plectin-1; test: competition with 111In-tPTP on L3.6 cells, gamma counting

T1 sequence (Q15149 whole entry): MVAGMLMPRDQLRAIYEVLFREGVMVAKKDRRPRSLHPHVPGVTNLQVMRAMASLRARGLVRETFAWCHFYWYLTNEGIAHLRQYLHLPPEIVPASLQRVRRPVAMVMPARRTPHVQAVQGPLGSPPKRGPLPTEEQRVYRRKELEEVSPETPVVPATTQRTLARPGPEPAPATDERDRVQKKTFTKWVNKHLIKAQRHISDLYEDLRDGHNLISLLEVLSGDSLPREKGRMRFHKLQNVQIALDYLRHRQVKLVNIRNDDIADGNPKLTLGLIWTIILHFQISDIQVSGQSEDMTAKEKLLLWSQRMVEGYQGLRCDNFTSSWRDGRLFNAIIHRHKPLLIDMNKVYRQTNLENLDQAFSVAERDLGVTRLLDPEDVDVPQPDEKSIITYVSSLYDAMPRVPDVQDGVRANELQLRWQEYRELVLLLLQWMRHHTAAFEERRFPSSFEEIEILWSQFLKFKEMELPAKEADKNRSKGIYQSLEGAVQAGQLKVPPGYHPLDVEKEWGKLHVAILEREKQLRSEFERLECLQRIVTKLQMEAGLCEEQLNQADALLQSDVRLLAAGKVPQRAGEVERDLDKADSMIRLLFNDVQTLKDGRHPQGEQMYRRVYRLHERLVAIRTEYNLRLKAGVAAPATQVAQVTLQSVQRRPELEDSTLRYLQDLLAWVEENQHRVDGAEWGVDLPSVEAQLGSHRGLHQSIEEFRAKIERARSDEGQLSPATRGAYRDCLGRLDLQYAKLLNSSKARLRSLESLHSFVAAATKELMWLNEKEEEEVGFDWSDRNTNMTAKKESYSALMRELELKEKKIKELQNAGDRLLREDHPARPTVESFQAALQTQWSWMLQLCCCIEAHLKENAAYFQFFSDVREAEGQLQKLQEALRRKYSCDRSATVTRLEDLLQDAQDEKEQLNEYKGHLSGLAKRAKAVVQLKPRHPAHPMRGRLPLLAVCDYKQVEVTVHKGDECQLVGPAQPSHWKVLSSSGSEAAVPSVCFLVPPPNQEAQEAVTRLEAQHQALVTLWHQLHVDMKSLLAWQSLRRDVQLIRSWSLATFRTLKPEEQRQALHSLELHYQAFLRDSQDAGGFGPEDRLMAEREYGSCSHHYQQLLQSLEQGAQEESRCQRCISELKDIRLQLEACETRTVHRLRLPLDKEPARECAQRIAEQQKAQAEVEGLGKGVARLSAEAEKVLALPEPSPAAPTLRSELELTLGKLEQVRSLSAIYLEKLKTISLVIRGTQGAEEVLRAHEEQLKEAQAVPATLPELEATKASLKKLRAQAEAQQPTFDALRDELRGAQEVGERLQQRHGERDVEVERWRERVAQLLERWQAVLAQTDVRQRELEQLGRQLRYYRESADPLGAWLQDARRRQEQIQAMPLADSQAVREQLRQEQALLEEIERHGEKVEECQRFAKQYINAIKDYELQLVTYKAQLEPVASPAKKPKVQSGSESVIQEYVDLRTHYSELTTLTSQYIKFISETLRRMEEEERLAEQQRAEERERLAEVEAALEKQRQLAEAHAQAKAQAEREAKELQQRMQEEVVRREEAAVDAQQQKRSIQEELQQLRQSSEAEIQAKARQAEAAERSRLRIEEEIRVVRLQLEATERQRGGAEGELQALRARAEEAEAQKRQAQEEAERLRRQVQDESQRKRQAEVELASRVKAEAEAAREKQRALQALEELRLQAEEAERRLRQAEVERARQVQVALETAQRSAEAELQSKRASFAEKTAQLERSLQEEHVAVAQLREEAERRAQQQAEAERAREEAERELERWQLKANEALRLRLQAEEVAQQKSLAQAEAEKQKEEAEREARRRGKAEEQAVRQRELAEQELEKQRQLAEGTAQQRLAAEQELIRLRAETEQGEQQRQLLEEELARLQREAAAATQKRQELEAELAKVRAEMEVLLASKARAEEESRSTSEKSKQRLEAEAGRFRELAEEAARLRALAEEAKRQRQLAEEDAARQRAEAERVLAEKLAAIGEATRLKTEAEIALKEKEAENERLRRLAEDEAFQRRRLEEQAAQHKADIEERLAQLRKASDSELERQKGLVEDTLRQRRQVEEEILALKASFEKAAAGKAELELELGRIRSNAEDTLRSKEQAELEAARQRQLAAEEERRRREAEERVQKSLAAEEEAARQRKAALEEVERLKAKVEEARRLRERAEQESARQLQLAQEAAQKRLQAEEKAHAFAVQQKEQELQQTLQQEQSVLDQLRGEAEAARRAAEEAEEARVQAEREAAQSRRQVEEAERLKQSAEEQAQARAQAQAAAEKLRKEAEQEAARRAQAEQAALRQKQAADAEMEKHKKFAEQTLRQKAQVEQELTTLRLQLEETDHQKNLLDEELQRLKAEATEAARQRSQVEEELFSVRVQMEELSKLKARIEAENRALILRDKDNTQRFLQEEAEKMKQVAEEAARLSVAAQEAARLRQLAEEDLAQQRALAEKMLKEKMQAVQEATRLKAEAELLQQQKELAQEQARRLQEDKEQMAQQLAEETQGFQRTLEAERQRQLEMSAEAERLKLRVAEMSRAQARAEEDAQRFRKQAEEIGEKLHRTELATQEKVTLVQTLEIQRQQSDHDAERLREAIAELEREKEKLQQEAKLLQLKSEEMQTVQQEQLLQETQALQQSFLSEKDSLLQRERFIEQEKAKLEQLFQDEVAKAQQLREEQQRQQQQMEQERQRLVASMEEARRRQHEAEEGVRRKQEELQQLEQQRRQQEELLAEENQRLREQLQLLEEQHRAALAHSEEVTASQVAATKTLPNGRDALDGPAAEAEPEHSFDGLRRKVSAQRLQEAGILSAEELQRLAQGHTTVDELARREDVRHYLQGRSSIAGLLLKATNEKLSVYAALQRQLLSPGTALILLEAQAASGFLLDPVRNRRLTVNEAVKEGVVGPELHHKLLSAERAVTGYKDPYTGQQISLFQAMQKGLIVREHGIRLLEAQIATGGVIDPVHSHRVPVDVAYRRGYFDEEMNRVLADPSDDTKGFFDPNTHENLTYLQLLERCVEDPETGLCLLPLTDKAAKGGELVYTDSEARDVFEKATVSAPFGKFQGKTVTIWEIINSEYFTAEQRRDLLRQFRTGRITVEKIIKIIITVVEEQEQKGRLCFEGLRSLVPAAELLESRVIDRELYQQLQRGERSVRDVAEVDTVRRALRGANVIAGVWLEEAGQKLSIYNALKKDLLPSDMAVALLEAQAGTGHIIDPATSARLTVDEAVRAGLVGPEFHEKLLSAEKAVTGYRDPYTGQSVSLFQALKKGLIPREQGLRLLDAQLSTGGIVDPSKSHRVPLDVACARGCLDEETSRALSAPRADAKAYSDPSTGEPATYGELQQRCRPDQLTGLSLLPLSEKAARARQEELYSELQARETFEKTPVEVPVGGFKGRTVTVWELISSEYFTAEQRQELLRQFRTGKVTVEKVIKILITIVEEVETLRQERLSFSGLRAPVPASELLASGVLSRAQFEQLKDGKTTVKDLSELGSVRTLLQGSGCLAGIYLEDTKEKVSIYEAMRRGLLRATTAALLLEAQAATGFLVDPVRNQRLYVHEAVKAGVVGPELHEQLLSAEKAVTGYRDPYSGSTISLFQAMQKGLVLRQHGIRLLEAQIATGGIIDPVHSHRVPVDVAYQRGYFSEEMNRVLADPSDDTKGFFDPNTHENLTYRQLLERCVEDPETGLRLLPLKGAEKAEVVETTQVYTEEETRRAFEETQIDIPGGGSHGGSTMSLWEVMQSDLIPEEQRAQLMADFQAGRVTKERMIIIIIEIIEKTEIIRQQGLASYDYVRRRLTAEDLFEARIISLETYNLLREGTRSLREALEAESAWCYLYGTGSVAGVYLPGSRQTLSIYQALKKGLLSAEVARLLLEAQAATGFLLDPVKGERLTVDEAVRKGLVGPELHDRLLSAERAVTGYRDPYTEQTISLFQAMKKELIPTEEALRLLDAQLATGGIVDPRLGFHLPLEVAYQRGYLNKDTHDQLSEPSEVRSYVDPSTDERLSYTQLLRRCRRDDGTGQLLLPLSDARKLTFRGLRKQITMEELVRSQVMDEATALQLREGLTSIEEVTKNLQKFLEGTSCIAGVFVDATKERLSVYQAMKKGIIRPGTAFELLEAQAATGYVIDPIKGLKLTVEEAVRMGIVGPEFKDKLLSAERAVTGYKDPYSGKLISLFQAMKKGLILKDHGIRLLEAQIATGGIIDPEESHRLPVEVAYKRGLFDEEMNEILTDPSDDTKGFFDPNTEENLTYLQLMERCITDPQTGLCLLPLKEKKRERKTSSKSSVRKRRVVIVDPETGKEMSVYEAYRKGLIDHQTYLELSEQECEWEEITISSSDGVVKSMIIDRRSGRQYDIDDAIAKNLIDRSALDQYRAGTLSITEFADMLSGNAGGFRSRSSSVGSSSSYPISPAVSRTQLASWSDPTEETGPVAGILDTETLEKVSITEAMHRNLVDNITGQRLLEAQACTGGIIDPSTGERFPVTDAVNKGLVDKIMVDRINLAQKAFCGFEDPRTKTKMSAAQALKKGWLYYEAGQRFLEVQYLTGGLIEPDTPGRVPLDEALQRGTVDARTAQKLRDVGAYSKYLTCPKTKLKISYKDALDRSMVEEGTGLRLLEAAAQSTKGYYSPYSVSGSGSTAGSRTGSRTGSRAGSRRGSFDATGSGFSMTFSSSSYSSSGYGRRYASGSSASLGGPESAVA

affinity [2]: 160 nmol
Molecule: KTLLPTP [monomeric peptide]
time before visualization [1]: 48 h

Ki [3]: 2860 nM
Molecule: ncPTP-4(βAKHVMSKQGGS (PEG5000))KKKDOTAβA-NH2 (peptide [βAla]KHVMSKQGGS; chain Lys-Lys-Lys(DOTA)-{βAla-NH2}; not fully specified (some residues, C-terminus); also: tetramer: four chain-1 arms on lysine core, each arm's Ser joined via PEG5000 to the lysine core)

Ki [4]: 830 nM
B1: tetrameric plectin-1 targeted peptide (tPTP) complex, (β…(PEG5000))4 KKKKDOTAβA-NH2 (peptide)
peptide: [βAla]KTLLPTPGGS-PEG5000
chain: KKKK(DOTA)-{βAla-NH2}
modifications: not fully specified (some residues); also: branched core [(arm)2-Lys]2-Lys-Lys(DOTA): four arms, C-terminal Ser of each joined through PEG5000 to an amino group of the core

Ki [4]: 2860 nM
B2: ncPTP-4(β… (PEG5000))KKKDOTAβA-NH2 (peptide)
peptide: [βAla]KHVMSKQGGS-PEG5000
chain: Lys-Lys-Lys
modifications: not fully specified (some residues, C-terminus); also: tetramer: four arms joined via PEG5000 to lysine core, attachment lysines not given here
